The source of these data is article PMC5714350.

Data set [1] deals with P27838. Kind of data set: dynamic light scattering; CyaY with Fe2+ 6:1 (DFO also 8:1) for 15 min, then chelator (deferiprone, DFO or BIPY) at 3 times the amount of iron. The following applies: other: dynamic light scattering.
For data set [2], the target named is P27838. As to the kind of experiment: dynamic light scattering; CyaY 2 mg/ml (0.16 mM) with ammonium iron (II) sulfate, Fe2+:protein 1:1, 2:1, 4:1, 6:1, 8:1, 10:1; 1 h at 30°C; volume distribution. The following applies: other: dynamic light scattering.

B1: E. coli frataxin CyaY (protein)
chain: MNDSEFHRLADQLWLTIEERLDDWDGDSDIDCEINGGVLTITFENGSKIIINRQEPLHQVWLATKQGGYHFDLKGDEWICDRSGETFWDLLEQAATQQAGETVSFR
In the data set with P27838 [1], B1 registered a % of particles in the monomer range (hydrodynamic radius 1.6–2.1 nm), with iron (Fe2+ 6:1) and BIPY of 76%; a % of particles in the monomer range (hydrodynamic radius 1.6–2.1 nm), with iron (Fe2+ 6:1) and DFO of 93%; a % of particles with hydrodynamic radius 2.2–2.9 nm (smaller oligomers), with iron (Fe2+ 6:1) and deferiprone of 95%; a % of particles with hydrodynamic radius 6.0–8.5 nm (oligomers), with iron (Fe2+ 6:1) and BIPY of 24%. In the data set with P27838 [1], the % of particles with hydrodynamic radius 6.0–8.5 nm (oligomers), with iron (Fe2+ 6:1) and DFO was determined as 7%; the % of particles with hydrodynamic radius 8.5–14 nm (oligomers), with iron (Fe2+ 6:1) and deferiprone worked out at 5%; the “% of particles with hydrodynamic radius 8.5–14 nm (oligomers), with iron (Fe2+ 8:1) and DFO” value is “(8.5–14 nm, 100%, Fig 3B)”. In the data set with P27838 [2], the % of particles with hydrodynamic radius 3.0–5.9 nm (oligomers), with iron (Fe2+ 6:1) is 77%; the “% of particles with hydrodynamic radius 6–8.5 nm (oligomers), with iron (Fe2+ 8:1)” value is recorded as “about 74% of the particles having a hydrodynamic radius in the range of 6–8.5 nm”; the % of particles with hydrodynamic radius 8.5–14 nm (oligomers), with iron (Fe2+ 6:1) is 23%; the “% of particles with hydrodynamic radius 8.5–14 nm (oligomers), with iron (Fe2+ 8:1)” value was “(25% and 1%, respectively, not shown)”. Further, in the data set with P27838 [2], the “% of particles with hydrodynamic radius 8.5–14 nm (oligomers), with iron (Fe2+ 10:1)” value is 8.5–14 nm (83%); the “% of particles with hydrodynamic radius 26–40 nm (oligomers), with iron (Fe2+ 10:1)” value is given as 26–40 nm (17%); the “% of particles with hydrodynamic radius >100 nm, with iron (Fe2+ 8:1)” value was “(25% and 1%, respectively, not shown)”.
